Paper doi:10.1101/2023.12.13.571598

Target: P301S tauRD-mEOS3.2 (human)
Assay: FRET or BRET

Work on “P301S tauRD-mEOS3.2 (domain or fragment)” yielded a percent FRET-positive cells (100 nM recombinant tau fibrils) of 74%.
